In patent US6096512:

How the values were obtained:
[1] = biological target: bovine cytochrome C, native (bovine) (UniProt P62894)
[2] = biological target: bovine cytochrome C, reduced and carboxymethylated (bovine) (UniProt P62894)
[3] = biological target: T1, bovine rhodanese, native (bovine) (UniProt P00586)
T1 sequence: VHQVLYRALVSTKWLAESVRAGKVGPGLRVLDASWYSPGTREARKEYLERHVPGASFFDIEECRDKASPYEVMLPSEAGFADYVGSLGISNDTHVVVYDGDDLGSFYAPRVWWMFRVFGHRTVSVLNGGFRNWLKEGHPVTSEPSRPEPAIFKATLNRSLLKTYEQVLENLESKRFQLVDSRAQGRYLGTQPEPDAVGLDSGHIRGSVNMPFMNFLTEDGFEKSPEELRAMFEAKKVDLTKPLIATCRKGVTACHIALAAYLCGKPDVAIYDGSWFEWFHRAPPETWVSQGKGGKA

[4] = biological target: T2, bovine rhodanese, reduced and carboxymethylated (bovine) (UniProt P00586)
T2 sequence (chain, reduced and carboxymethylated): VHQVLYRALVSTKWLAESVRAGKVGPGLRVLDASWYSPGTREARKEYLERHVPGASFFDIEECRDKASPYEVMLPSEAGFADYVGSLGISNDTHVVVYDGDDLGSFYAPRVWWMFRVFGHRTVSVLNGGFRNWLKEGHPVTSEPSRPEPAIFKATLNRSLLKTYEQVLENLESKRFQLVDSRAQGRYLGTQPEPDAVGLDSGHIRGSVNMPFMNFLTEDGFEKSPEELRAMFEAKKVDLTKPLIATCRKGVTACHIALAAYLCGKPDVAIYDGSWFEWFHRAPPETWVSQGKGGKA

[5] = biological target: myelin basic protein
[6] = biological target: subtilisin, native
[7] = biological target: subtilisin, reduced and carboxymethylated
[8] = biological target: T3, synthetic acceptor peptide Arg-Ser-Pro-Pro-Pro
T3 sequence (peptide): RSPPP

[9] = biological target: T4, synthetic acceptor peptide Arg-Thr-Pro-Pro-Pro
T4 sequence (peptide): RTPPP

[10] = biological target: synthetic acceptor peptide Pro-Pro-Ala-D-Ser-Thr-D-Ser-Ala-Pro-Gly

- Product formed nmol/min/mg (transfer of N-acetylgalactosamine to protein acceptors) [1]: < 0.1 nmol/min/mg
- Product formed nmol/min/mg (transfer of N-acetylgalactosamine to protein acceptors) [2]: < 0.1 nmol/min/mg
- Product formed nmol/min/mg (transfer of N-acetylgalactosamine to protein acceptors) [3]: < 0.1 nmol/min/mg
- Product formed nmol/min/mg (transfer of N-acetylgalactosamine to protein acceptors) [4]: 3.3 nmol/min/mg
- Product formed nmol/min/mg (transfer of N-acetylgalactosamine to protein acceptors) [5]: 22.2 nmol/min/mg
- Product formed nmol/min/mg (transfer of N-acetylgalactosamine to protein acceptors) [6]: < 0.1 nmol/min/mg
- Product formed nmol/min/mg (transfer of N-acetylgalactosamine to protein acceptors) [7]: 0.6 nmol/min/mg
- Vmax /Km M^-1 s^-1 [8]: 0.4 M⁻¹ s⁻¹
- Km [9]: 3.3 mM
- Vmax /Km M^-1 s^-1 [9]: 183 M⁻¹ s⁻¹
- Vmax /Km M^-1 s^-1 [10]: 1.2 M⁻¹ s⁻¹
B1: bovine colostrum UDP-GalNAc:polypeptide, N-acetylgalactosaminyltransferase (purified soluble enzyme) (enzyme)
chain: GLPAGDVLEPVQKPHEGPGEMGKPVVIPKEDQEKMKEMFKINQFNLMASEMIALNRSLPDVRLEGCKTKVYPDNLPTTSVVIVFHNEAWSTLLRTVHSVINRSPRHMLEEIVLVDDASERDFLKRPLESYVKKLKVPVHVIRMEQRSGLIRARLKGAAVSKGQVITFLDAHCECTVGWLEPLLARIKHDRKTVVCPIIDVISDDTFEYMAGSDMTYGGFNWKLNFRWYPVPQREMDRRKGDRTLPVRTPTMAGGLFSIDRDYFQEIGTYDAGMDIWGGENLEISFRIWQCGGTLEIVTCSHVGHVFRKATPYTFPGGTGQIINKNNRRLAEVWMDEFKNFFYIISPGVTKVDYGDISSRLGLRHKLQCRPFSWYLENIYPDSQIPRHYFSLGEIRNVETNQCLDNMARKENEKVGIFNCHGMGGNQVFSYTANKEIRTDDLCLDVSKLNGPVTMLKCHHLKGNQLWEYDPVKLTLQHVNSNQCLDKATDEDSQVPSIRDCSGSRSQQWLLRNVTLPEIF
